Data set [1] deals with T1, T4 DNA polymerase (gp43) (Bacteriophage T4) (UniProt P04415).
T1 sequence: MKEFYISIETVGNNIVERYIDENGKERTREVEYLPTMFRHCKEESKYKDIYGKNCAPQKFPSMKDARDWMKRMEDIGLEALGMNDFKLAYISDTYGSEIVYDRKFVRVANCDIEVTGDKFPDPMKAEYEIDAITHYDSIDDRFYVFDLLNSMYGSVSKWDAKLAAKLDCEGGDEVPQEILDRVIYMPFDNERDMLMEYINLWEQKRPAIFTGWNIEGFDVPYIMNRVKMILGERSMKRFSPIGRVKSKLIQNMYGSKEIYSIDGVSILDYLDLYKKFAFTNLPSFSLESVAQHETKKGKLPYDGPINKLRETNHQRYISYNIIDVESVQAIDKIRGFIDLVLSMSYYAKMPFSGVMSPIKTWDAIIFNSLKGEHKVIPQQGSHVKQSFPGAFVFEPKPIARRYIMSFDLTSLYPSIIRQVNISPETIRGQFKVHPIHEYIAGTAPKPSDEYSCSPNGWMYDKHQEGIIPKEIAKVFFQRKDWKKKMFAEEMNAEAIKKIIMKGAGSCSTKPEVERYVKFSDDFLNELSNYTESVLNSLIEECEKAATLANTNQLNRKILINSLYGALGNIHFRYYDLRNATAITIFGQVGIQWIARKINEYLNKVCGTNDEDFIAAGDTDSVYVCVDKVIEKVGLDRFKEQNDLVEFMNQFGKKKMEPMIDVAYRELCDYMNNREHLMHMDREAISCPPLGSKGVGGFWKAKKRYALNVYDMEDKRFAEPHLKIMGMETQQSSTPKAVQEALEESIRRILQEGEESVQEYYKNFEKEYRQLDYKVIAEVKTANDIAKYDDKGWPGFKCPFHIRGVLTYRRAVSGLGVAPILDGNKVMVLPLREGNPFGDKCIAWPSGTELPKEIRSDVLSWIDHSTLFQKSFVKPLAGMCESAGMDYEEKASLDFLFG
The data set is described as follows: filter. The settings on record: random loop population, 50-fold lower affinity.

Data set [2] has as its target HIV-1 reverse transcriptase p66/p51 heterodimer (Human immunodeficiency virus 1) (UniProt P04585+P04585). The data set is described as follows: filter. The settings on record: half-maximal binding; 200 mM KOAc, 50 mM Tris-HCl pH 7.7, 10 mM DTT.
Data set [3] has as its target T1, T4 DNA polymerase (gp43) (Bacteriophage T4). The experiment in a line: FP. The settings on record: filter binding; 200 mM KOAc, 50 mM Tris-HCl pH 7.7, 37 C.
Data set [4] addresses human tissue plasminogen activator (htPA) (Homo sapiens) (UniProt P00750). The experiment in a line: filter. The settings on record: 150 mM NaAc, 50 mM Tris-acetate pH 7.5.

Sequence of human tissue plasminogen activator (htPA) (Homo sapiens) (P00750 36-562): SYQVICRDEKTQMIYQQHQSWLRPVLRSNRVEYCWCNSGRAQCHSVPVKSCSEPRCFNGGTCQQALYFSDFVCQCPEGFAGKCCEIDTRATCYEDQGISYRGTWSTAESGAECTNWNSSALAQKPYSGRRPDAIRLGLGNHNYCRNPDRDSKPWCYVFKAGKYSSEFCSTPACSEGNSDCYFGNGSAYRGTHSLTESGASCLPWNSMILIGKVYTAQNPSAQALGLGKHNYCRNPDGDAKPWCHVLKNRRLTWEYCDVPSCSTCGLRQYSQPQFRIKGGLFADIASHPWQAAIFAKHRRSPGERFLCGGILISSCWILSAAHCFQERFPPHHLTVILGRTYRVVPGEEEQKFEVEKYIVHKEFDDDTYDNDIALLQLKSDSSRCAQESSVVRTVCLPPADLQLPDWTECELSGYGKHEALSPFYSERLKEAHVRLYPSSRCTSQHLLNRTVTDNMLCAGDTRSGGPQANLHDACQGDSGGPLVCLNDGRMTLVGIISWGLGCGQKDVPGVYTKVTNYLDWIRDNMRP

A word on the Kd: it is a measure of binding affinity in units of concentration. A lower Kd goes with tighter binding. As for “AUAUUCCUUAGUUUAUAGCCCNNNNNNNNAGGCUCUUGAUUG [gene 43 operator RNA random 8N loop pool]”, in data set [1], the Kd came out at 250 nM.

Take “GGGAGCAUCAGACUUUUAAUCUGACAAUCAAGNNNNNNNNNNNNNNNNNNNNNNNNNNNNNNNNAUCUAUGAAAGAAUUUUAUAUCUCUAUUGAAAC”: the K half in data set [2] stood at 700 nM.

“AUAUUCCUUAGUUUAUAGCCCNNNNNNNNAGGCUCUUGAUUG [gp43 RNA wild-type loop AAUAACUC]”: in data set [3], the Kd turned out to be 5 nM.

“GGGAGCUCAGAAUAAACGCUCAANNNNNNNNNNNNNNNNNNNNNNNNNNNNNNUUCGACAUGAGGCCCGGAUCCGGC [30N candidate pool]” gave a dissociation constant (Kd) in data set [4] of 70 nM.

These data come from US5670637.
